Data published in patent publication US20210024620A1.

Assays:
[1] = target: FcRn immobilised on the FcRn affinity column (biotinylated cynoFcRn in one experiment, biotinylated hFcRn in another); experiment: FcRn affinity chromatography, linear pH gradient; species of the immobilised FcRn not given
[2] = target: biotinylated human FcRn (human) (UniProt P55899); experiment: Biacore SPR, pH 7.4, 1000 nM antibody
rat FcRn (rat) [3] = target: rat FcRn (rat) (UniProt P13599); experiment: Biacore SPR, pH 7.4, 1000 nM antibody
Chain of rat FcRn (rat) (P13599 23-298 limits assumed, chain 1 of 2): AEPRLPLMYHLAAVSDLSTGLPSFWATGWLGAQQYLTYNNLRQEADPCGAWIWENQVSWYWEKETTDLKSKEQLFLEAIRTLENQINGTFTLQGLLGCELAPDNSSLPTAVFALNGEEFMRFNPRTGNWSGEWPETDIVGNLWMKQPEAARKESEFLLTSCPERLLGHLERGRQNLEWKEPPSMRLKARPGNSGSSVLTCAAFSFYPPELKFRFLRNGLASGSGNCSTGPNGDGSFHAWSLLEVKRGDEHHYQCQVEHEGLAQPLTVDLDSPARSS
Chain of rat FcRn (rat) (P07151 21-119 limits assumed, chain 2 of 2, further chain): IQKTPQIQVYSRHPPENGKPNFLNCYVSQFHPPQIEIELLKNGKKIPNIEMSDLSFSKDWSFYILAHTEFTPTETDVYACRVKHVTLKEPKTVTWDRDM

rat FcRn (rat) [4] = target: rat FcRn (rat) (UniProt P13599); experiment: Biacore SPR, pH 6.0
rat FcRn (rat) [5] = target: rat FcRn (rat) (UniProt P13599); experiment: Biacore, pH 6.0, apparent KD
[6] = target: biotinylated human FcRn (p51 subunit residues 24-297 with C-terminal Avi-tag; beta2-microglobulin residues 21-119) (human) (UniProt P55899); experiment: Biacore SPR, pH 6.0
Chain of biotinylated human FcRn (p51 subunit residues 24-297 with C-terminal Avi-tag; beta2-microglobulin residues 21-119) (human) (P55899 24-297 limits assumed, chain 1 of 2): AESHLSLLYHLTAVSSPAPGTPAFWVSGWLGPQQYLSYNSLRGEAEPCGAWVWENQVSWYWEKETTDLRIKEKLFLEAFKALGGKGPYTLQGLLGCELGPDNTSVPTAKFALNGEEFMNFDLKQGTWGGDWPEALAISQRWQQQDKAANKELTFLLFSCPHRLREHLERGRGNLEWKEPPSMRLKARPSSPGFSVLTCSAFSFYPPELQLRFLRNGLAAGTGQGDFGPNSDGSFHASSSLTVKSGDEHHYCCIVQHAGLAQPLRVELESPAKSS
Chain of biotinylated human FcRn (p51 subunit residues 24-297 with C-terminal Avi-tag; beta2-microglobulin residues 21-119) (human) (P61769 21-119 limits assumed, chain 2 of 2, further chain): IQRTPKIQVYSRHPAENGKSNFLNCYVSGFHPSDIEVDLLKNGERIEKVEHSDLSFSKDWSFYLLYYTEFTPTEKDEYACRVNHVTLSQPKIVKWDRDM

[7] = target: biotinylated human FcRn (p51 subunit residues 24-297 with C-terminal Avi-tag; beta2-microglobulin residues 21-119) (human) (UniProt P55899); experiment: Biacore SPR, pH 7.4, steady state
[8] = target: biotinylated human FcRn (p51 subunit residues 24-297 with C-terminal Avi-tag; beta2-microglobulin residues 21-119) (human) (UniProt P55899); experiment: Biacore; inverse ratio (RU at pH 7.4 over affinity at pH 6.0)
[9] = target: biotinylated human FcRn (p51 subunit residues 24-297 with C-terminal Avi-tag; beta2-microglobulin residues 21-119) (human) (UniProt P55899); experiment: Biacore; affinity at pH 6.0 (M^-1) over steady state RU at pH 7.4
[10] = target: biotinylated human FcRn (human) (UniProt P55899); experiment: Biacore SPR, pH 6.0
[11] = target: biotinylated human FcRn (human) (UniProt P55899); experiment: Biacore SPR, pH 7.4
rat FcRn (rat) [12] = target: rat FcRn (rat) (UniProt P13599); experiment: Biacore SPR, pH 7.4

Chain of biotinylated human FcRn (human) (P55899 24-297 limits assumed, chain 1 of 2): as the sequence (P55899 24-297 limits assumed, chain 1 of 2) above
Chain of biotinylated human FcRn (human) (P61769 21-119 limits assumed, chain 2 of 2, further chain): as the sequence (P61769 21-119 limits assumed, chain 2 of 2, further chain) above

Substance | FcRn affinity column elution pH [1] [pH] | Steady State RU [2] [RU] | Steady State RU (rat FcRn (rat) [3]) [RU] | Kd (rat FcRn (rat) [4]) [nM] | Kd (rat FcRn (rat) [5]) [nM] | Ka [6] [M⁻¹] | Steady State Binding, pH 7.4 (RU) [7] [RU] | Ratio [8] | Ratio (pH 6.0/pH 7.4) [9] | Ratio (pH 6.0/pH 7.4) [8] | Kd [10] [nM] | koff [10] [s⁻¹] | kon [10] [M⁻¹ s⁻¹] | koff (rat FcRn (rat) [4]) [s⁻¹] | kon (rat FcRn (rat) [4]) [M⁻¹ s⁻¹] | Steady State RU [11] [RU] | Steady State RU (rat FcRn (rat) [12]) [RU]
mAb1 E380C (antibody) | 7.18 | 5.7 | 27.7 | 6310 | 6310 |  |  |  |  |  |  |  |  |  |  |  | 
mAb1 K288N (antibody) | 7.39 |  | 20.4 | 190 | 190 |  |  |  |  |  |  |  |  |  |  |  | 
mAb1 MDQF (T256D/T307Q/N434F) (antibody) |  |  |  |  |  | 6.62e+06 | 55.3 |  |  |  |  |  |  |  |  |  | 
mAb1 MDQY (T256D/T307Q/N434Y) (antibody) |  |  |  |  |  | 3.69e+07 | 49.4 | 1.34e-06 | 747000 |  |  |  |  |  |  |  | 
mAb1 MDTF (T256D/N434F) (antibody) |  |  |  | 1.78 |  | 3.34e+07 | 29.2 |  | 1.14e+06 | 8.74e-07 | 29.9 | 0.029 | 968000 | 0.00039 | 218000 | 29.2 | 63
mAb1 MDTY (T256D/N434Y) (antibody) |  |  |  | 0.6 |  | 6.41e+07 | 37.1 |  | 1.73e+06 |  | 15.6 | 0.0285 | 1.83e+06 | 0.00025 | 413000 | 37.1 | 71.6
mAb1 MDWF (T256D/T307W/N434F) (antibody) |  |  |  |  |  | 2.81e+07 | 47.1 |  | 597000 | 1.68e-06 |  |  |  |  |  |  | 
mAb1 MEQF (T256E/T307Q/N434F) (antibody) |  |  |  |  |  | 142000 |  |  |  |  |  |  |  |  |  |  | 
mAb1 MEQN (T256E/T307Q) (antibody) |  |  |  | 10.7 |  | 2e+06 |  |  |  |  | 499 |  |  |  |  |  | 23.4
mAb1 MEQY (T256E/T307Q/N434Y) (antibody) |  |  |  |  |  | 2.38e+07 | 38.6 |  | 617000 |  |  |  |  |  |  |  | 
mAb1 METF (T256E/N434F) (antibody) |  |  |  | 7.53 |  | 1.28e+07 | 23.3 | 1.82e-06 | 549000 |  | 78.2 | 0.0419 | 536000 | 0.00081 | 108000 | 23.3 | 59
mAb1 METY (T256E/N434Y) (antibody) |  |  |  | 7.71 |  | 1.6e+07 | 26.8 |  | 597000 |  | 62.6 | 0.0393 | 628000 | 0.00098 | 127000 | 26.8 | 62.2
mAb1 MEWF (T256E/T307W/N434F) (antibody) |  |  |  |  |  | 5.62e+07 | 41.9 |  | 1.34e+06 | 7.46e-07 |  |  |  |  |  |  | 
mAb1 MEWN (T256E/T307W) (antibody) |  |  |  | 10.6 |  | 3.1e+06 |  |  |  |  | 323 |  |  |  |  |  | 33
mAb1 MEWY (T256E/T307W/N434Y) (antibody) |  |  |  |  |  | 7.04e+07 | 46.6 |  | 1.51e+06 | 6.62e-07 |  |  |  |  |  |  | 
mAb1 MTQF (T307Q/N434F) (antibody) |  |  |  | 3.89 |  | 2.33e+07 | 34.2 |  | 681000 | 1.47e-06 | 42.9 | 0.0246 | 574000 | 0.0004 | 104000 | 34.2 | 62.5
mAb1 MTQY (T307Q/N434Y) (antibody) |  |  |  | 4.11 |  | 3.09e+07 | 38.4 |  | 805000 | 1.24e-06 | 32.4 | 0.0202 | 622000 | 0.00048 | 116000 | 38.4 | 63
mAb1 MTWF (T307W/N434F) (antibody) |  |  |  | 2.7 |  | 2.62e+07 | 30.5 |  |  |  | 38.2 |  |  | 0.00057 |  | 30.5 | 65.1
mAb1 MTWY (T307W/N434Y) (antibody) |  |  |  | 0.62 |  | 4.65e+07 | 37.2 |  | 1.25e+06 | 8e-07 | 21.5 | 0.0317 | 1.48e+06 | 0.0003 | 480000 | 37.2 | 69.6
mAb1 YDTF (M252Y/T256D/N434F) (antibody) |  |  |  |  |  | 2.96e+07 | 57.7 |  | 513000 | 1.95e-06 |  |  |  |  |  |  | 
mAb1 YDWN (M252Y/T256D/T307W) (antibody) |  |  |  |  |  | 1.01e+07 | 25.9 |  | 390000 | 2.56e-06 |  |  |  |  |  |  | 
mAb1 YETY (M252Y/T256E/N434Y) (antibody) |  |  |  |  |  | 3.34e+07 | 22.6 |  | 1.48e+06 | 6.77e-07 |  |  |  |  |  |  | 
mAb1 YEWN (M252Y/T256E/T307W) (antibody) |  |  |  |  |  | 6.41e+06 | 69.6 |  | 92100 | 1.09e-05 |  |  |  |  |  |  | 
mAb1 YTQF (M252Y/T307Q/N434F) (antibody) |  |  |  |  |  | 5.65e+07 | 59.9 |  | 943000 | 1.06e-06 |  |  |  |  |  |  | 
mAb1 YTQN (M252Y/T307Q) (antibody) |  |  |  | 4.11 |  | 3.6e+06 | 10.6 |  | 340000 | 2.94e-06 | 278 | 0.096 | 345000 | 0.00105 | 255000 | 10.6 | 49.2
mAb1 YTQY (M252Y/T307Q/N434Y) (antibody) |  |  |  |  |  | 6.33e+07 | 71.5 |  | 885000 | 1.13e-06 |  |  |  |  |  |  | 
mAb1 YTTF (M252Y/N434F) (antibody) |  |  |  | 0.29 |  | 5.56e+07 | 43.8 | 7.88e-07 | 1.27e+06 |  | 18 | 0.023 | 1.27e+06 | 0.00012 | 403000 | 43.8 | 79.3
mAb1 YTWF (M252Y/T307W/N434F) (antibody) |  |  |  |  |  | 6.54e+07 | 62.6 |  | 1.04e+06 | 9.57e-07 |  |  |  |  |  |  | 
